Reference: doi:10.1101/2023.01.10.523494 (bioRxiv, 2023)

Legend:
[1] = biological target: receptor binding domain (RBD) of the wildtype (WT) SARS-CoV-2 spike protein (SARS-CoV-2, wildtype (sequence as in …))
[2] = biological target: SARS-CoV-2 RBD for crystallisation (SARS-CoV-2 (wildtype), UniProt P0DTC2); assay: crystal structure

Row | Binder | binding result [1] | binding result [2]
1 | hRBD10 (antibody, V domains shown) VH: EVQLVESGGGLVQPGGSLRLSCSASGFTFTTYNMNWVRQAPGKGLEWVSYISSSSSTIYYADSVEGRFTISRDNAKNSLYLQMNSLRDEDTAVYYCARGVGATSYYYHGMDVWGQGTTVSVSS VL: DIQMTQSPSSLSASVGDRVTITCRASQSIYSYLNWYKQKAGKAPKLLIYAASSLQSGVPSRFSGSGSGTDFTLTIISLQPEDFATYYCQQSYSTPPTFGQGTKVEIK | binds | –
2 | hRBD11 (antibody, V domains shown) VH: QVQLQESGPGLVKPSQTLSLTCTVSGGSISSGGYYWSWIRQHPGKGLEWIGYIFYSGSTYYNPSLKSRVIISVDTSKNQFSLKLSSVTAADTAAYYCARVNRVYGSGSYSLDPWGQGTLVTVSS VL: QSALTQPASVSGSPGQSITISCTGTSRDVGDYDYVSWYQQHPGKAPKLMIYEGSERPSGVSNRFSGSKSGNTASLTISGLQAEDEADYYCCSYTGSSTSFLFGTGTKVTVL | binds | –
3 | hRBD13 (antibody, V domains shown) VH: QVQLVESGGGVVQPGRSLRLSCAVSGFTFRNYGMDWVRQAPGKGLEWVAVISYDGSNKYYADSVKGRFTISRDNSKNTLFLHLNSLRAEDTAVYYCAKAGGGPYCGGGNCYMHYFDYWGQGTQVTVSS VL: DIQMTQSPSSLSASVGDRVTITCQASQDINNYLNWYQQKPGKAPKLLIYDASNLETGVPLRFSGSGSATHFSFTISSLQPEDIATYYCQQYDHLPCTFGQGTKLEIR | binds | –
4 | hRBD14 (antibody, V domains shown) VH: EVQLVESGGGLVQPGGSLRLSCAASGFSFSSSDMHWVRQATGKGLEWVSGIGTSGDTYYLGSVKGRFTISRDDAKNSFYLQMNSLRAGDTAVYYCARGEMAATGLWYYFDYWGQGTLVTVSS VL: not shown | binds | –
5 | hRBD15 (antibody, V domains shown) VH: QVQLVQSGAEVKKPGASVKVSCKASGYTFTSQYMHWVRQAPGQGLEWMGIINPSGGSTSYAQKFQGRVTMTSDTSTSTVYMELSSLRSEDTAVYYCARDIYFVPARGGFDPWGQGTLVTVSS VL: EIVLTQSPGTLSLSPGERATLSCRASQSIISSYLAWYQQKPGQAPRLLIYGASSRATGIPDRFSGSGSGTDFTLTISRLEPEDFAVYYCQQSGSAPRYTFGQGTKLEIK | binds | –
6 | mRBD2 Fab fragment (Fab, V domains shown) VH: QVQLQQSGAELARPGASVKLSCKASGYTFISNGISWVKQRTGQGLEWIGEIYPRNGNTYYNEKFKGKATLTADKSSSTAYMELRSLTSEDSAVFFCARDYYYGSFDYWGQGTTLTVSS VL: DIQMTQSPSSLSASLGERVSLTCRASREISGYLTWLQQKPDGTIKRLIYAASTLDSGVPKRFSGSRSGSDYSLTISSLESEDFADYYCLQYASYPWTFGGGTKLEIK | – | binds
